doi:10.1101/2025.07.30.667432 (bioRxiv, 2025)

How the values were obtained:
Assay in all cases: affinity purification with mass spectrometry
[1] = target: Nic96 (Saccharomyces cerevisiae, UniProt P34077)
[2] = target: Nsp1 (Saccharomyces cerevisiae (strain ATCC …, UniProt P14907))
[3] = target: Nup49 (Saccharomyces cerevisiae (strain ATCC …, UniProt Q02199))
[4] = target: Nup57 (Saccharomyces cerevisiae (strain ATCC …, UniProt P48837))
[5] = target: Pom152 (Saccharomyces cerevisiae (strain ATCC …, UniProt P39685))
[6] = target: Nup192 (Saccharomyces cerevisiae (strain ATCC …, UniProt P47054))
[7] = target: Pom34-ZZ (Saccharomyces cerevisiae (strain ATCC …, UniProt Q12445))

Measured: binding result

Chain of Pom152 (Saccharomyces cerevisiae (P39685 whole entry): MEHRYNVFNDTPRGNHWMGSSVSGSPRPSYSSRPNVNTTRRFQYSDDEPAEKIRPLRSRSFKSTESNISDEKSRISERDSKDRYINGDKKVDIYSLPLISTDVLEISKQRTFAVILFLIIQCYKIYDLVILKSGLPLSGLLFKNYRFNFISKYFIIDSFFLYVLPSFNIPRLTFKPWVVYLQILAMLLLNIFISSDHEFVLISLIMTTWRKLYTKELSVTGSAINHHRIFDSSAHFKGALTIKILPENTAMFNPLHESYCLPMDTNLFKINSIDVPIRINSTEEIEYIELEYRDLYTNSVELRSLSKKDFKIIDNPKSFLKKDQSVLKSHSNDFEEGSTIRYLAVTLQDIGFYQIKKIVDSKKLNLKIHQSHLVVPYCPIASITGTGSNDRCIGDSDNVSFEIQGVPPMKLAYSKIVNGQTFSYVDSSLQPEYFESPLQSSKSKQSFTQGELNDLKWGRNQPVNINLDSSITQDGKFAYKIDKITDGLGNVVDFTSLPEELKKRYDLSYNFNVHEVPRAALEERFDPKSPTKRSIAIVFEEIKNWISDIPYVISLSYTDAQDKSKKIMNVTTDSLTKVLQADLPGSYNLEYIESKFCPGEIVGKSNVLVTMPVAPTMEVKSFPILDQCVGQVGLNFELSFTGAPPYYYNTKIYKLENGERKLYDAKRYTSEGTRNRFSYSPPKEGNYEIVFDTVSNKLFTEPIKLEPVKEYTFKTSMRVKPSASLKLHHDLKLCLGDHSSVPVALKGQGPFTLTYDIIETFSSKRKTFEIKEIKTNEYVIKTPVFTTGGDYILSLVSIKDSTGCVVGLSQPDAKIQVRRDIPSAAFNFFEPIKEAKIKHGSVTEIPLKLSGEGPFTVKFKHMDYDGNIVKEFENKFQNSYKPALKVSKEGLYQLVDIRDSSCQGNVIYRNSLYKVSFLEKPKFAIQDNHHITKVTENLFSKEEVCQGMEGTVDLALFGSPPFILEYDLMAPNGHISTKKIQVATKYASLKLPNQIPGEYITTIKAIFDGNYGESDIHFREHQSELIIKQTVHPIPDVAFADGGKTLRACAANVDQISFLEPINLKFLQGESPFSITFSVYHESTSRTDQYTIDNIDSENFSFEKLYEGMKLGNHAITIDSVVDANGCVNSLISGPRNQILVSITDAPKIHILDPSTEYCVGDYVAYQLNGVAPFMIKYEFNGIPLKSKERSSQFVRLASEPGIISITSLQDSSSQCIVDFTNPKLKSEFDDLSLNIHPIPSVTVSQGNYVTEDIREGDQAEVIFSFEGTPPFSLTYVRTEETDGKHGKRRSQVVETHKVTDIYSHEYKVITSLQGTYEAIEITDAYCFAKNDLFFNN
Chain of Pom34-ZZ (Saccharomyces cerevisiae (Q12445 whole entry): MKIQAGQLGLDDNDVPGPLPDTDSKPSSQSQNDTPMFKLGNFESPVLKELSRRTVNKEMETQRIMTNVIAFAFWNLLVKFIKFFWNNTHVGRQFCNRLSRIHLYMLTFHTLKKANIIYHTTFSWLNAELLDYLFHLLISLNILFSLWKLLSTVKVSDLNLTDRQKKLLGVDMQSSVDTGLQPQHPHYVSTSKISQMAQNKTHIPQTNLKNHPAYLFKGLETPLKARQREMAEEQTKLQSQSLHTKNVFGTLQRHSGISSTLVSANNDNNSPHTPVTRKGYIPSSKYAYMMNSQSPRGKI
Chain of Nic96 (P34077 whole entry): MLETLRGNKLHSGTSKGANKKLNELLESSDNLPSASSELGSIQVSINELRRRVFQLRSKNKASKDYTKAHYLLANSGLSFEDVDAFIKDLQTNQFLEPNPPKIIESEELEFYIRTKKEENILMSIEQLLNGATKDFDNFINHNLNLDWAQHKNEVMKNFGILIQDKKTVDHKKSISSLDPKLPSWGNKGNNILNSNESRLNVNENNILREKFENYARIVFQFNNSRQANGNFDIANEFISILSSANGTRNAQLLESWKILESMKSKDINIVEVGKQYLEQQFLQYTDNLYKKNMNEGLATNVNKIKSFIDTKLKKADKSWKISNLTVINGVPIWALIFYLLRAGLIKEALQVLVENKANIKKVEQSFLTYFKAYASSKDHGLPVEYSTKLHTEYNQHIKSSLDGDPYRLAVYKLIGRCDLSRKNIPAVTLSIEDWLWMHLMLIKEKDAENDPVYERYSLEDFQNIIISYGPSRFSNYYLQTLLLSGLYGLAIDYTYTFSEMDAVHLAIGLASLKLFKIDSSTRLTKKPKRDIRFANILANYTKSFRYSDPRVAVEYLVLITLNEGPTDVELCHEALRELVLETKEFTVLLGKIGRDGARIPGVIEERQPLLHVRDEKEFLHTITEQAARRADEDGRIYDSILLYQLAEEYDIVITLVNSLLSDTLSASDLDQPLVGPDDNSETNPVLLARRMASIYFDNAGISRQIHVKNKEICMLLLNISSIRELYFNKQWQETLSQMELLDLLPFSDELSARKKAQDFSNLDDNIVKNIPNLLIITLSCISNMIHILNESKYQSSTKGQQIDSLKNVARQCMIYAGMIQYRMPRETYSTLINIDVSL
Chain of Nup57 (Saccharomyces cerevisiae (P48837 whole entry): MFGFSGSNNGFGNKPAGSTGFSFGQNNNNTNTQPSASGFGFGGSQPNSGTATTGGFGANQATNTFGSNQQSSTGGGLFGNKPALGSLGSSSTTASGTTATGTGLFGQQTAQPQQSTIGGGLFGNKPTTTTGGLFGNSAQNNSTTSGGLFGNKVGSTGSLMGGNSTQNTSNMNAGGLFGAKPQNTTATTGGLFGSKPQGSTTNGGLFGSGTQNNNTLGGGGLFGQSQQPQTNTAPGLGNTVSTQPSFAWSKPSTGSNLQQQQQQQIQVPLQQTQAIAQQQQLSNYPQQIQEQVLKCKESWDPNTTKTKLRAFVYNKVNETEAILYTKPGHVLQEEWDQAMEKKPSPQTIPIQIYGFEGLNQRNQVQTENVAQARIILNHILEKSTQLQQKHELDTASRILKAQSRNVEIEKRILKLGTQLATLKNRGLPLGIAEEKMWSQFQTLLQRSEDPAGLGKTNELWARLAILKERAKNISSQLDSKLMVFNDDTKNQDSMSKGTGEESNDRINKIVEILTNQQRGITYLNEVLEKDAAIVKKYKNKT
Chain of Nup49 (Saccharomyces cerevisiae (Q02199 whole entry): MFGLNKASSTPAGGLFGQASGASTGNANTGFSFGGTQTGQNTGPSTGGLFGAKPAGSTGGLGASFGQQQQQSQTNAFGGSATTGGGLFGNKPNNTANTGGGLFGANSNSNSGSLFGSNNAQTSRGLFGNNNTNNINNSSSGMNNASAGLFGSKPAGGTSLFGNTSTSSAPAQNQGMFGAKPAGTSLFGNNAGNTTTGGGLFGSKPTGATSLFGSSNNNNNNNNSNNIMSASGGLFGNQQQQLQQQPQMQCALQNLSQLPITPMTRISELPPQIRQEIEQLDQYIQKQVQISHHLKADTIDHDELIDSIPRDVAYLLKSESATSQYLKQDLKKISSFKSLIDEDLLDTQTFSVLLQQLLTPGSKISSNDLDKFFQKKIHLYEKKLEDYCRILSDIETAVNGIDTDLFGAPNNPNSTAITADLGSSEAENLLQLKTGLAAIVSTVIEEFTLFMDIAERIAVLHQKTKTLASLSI

B1: VHH[Nic96]-ZZ (VHH)
VHH: QVQLVETGGGLVQAGGSLRLSCATSGFNFRLRTMGWYRQAPGKERELVASITSGGSTDYADSVKGRFTISRDNAKNTISLEMNSLKPDDTAVYYCNIWAPTTAAITNWGQGTQVTVSS
not listed: [7]
binds: all other assays above

B2: VHH[Nic96] (as expressed in the Pom34-ZZ strain) (VHH)
VHH: QVQLVETGGGLVQAGGSLRLSCATSGFNFRLRTMGWYRQAPGKERELVASITSGGSTDYADSVKGRFTISRDNAKNTISLEMNSLKPDDTAVYYCNIWAPTTAAITNWGQGTQVTVSS
binds: [7]
